From patent publication US20160304566A1

Assays:
human IgG-HRP (human) [1] = assay: ELISA, coated protein, human IgG-HRP, n=12
human IgG-HRP (human) [2] = assay: ELISA, SpA coated, human IgG-HRP, PBS in place of F(ab)2, n=5

| Substance | OD450 nm, Mean value (human IgG-HRP (human) [1]) [OD] | OD450 nm, Ave (human IgG-HRP (human) [2]) [OD] |
| --- | --- | --- |
| SpA5 (RRVV) (from UniProt P38507 37-327) | 0.062 | – |
| SpA5wt (from UniProt P38507 37-327) | 0.625 | – |
| SpA (252) (from UniProt P38507 37-508) | 0.635 | 0.641 |
